Experimental data published in patent publication US20070167369A1, “Novel use of isolated polypeptide comprising four FAS-1 domains, EM1 domain and RGD motif” (KYUNGPOOK NATIONAL UNIVERSITY INDUSTRY-ACADEMIC COOPERATION …, priority 2004, published 2007).

Columns and labels:
Type in all cases: cell-based, human
[1] = tested on: FAK-Raf-ERK/AKT signal transduction pathway; assay: Western blot of phosphorylation of FAK-Raf-ERK/AKT pathway enzymes in HUVECs (Example 12); conditions: 20 μM
Description: To examine the inhibitory mechanism of the fas-1 domain against endothelial cell proliferation and migration, the amount and activity of enzymes related to a FAK-Raf-ERK/AKT signal transduction pathway that is a typical signal transduction pathway in cells was determined by Western blot analysis on HUVECs treated with the fas-1 domain. Since the signal transduction-related proteins undergo phosphorylation during their activation process, the amount of phosphorylated proteins can be measured to predict their activity.
HUVECs were spread onto a 100-mm plate with 10% FBS-containing M199 medium, and incubated in an incubator at 37° C. for 12 hours. Following this, the culture medium was replaced with fresh medium containing 0.1% FBS and then further incubated for 24 hours. After removing the medium, the cells were washed one time with PBS buffer. The cells were detached from the plate by treatment with Trypsin-EDTA solution. The cells were suspended in 10% FBS-containing medium. Fas-1 protein was added to the cell suspension at final concentration of 20 μM. A control was added with PBS buffer. Thereafter, 3 ml of the cell mixture was taken and spread onto a plate coated with collagen. After 30 minutes, 60 minutes and 90 minutes, respectively, the medium was removed from the plate, and the cells were washed one time with PBS buffer. The cells were added with 200 μl of cell lysis buffer and left to stand on ice. The cell lysate was centrifuged at 12,000 rpm for 10 minutes at 4° C., and the supernatant containing a soluble protein was collected. Next, to quantify the concentration of the protein, a Bradford assay (BioRad, Hercules, Calif.) was performed using BSA as the standard protein. 30 μg of each of the sample proteins was electrophoresed on 10% SDS-polyacrylamide gel. The protein on the gel was transferred onto a nitrocellulose membrane, using electrophoresis. The protein transferred to the membrane was reacted with 5% skimmed milk for one hour to block nonspecific protein binding. Following this, it was reacted with the following various antibodies to signal transduction proteins: FAK (BD Science, Franklin Lakes, N.J., USA), pFAK (phosphorylated FAK; Santa Cruz Co., CA, USA), ERK (Sanca Cruz Co., CA, USA), pERK (phosphorylated ERK; Santa Cruz Co., CA, USA), AKT (Cell Signaling Technology Co., Beverly, Mass.), pAKT (phosphorylated AKT; Cell Signaling Technology Co., Beverly, Mass.), Raf1 (Santa Cruz Co., CA, USA) and pRaf1 (phosphorylated Raf1, Santa Cruz Co., CA, USA). The antibodies had been diluted in TBST (50 mM Tris-HCl, pH 7.6, 150 mM NaCl, 0.1% Tween 20) before use. The binding reaction with the antibodies was performed for at least 12 hours in a refrigeration condition. After completion of the reaction, the membrane was washed three times with TBST solution. Thereafter, the membrane was added with HRP-conjugated secondary antibodies (HRP-conjugated-anti-mouse IgG and HRP-conjugated-anti-rabbit IgG; Santa Cruz Co., CA, USA), and a binding reaction with the secondary antibodies was performed at room temperature for one hour. Next, the membrane was washed three times, and then added with 1 ml of ECL as chemiluminescent solution, so that sites where antigen-antibody reaction occurred were visualized by fluorescence. The membrane was exposed to an X-ray film.

[2] = tested on: HUVECs; assay: Inhibition of βig-h3-mediated endothelial cell adhesion (Example 4-1)
Description: HUVECs were suspended in medium at a density of 3×10^5 cells/ml, and 0.1 ml of the cell suspension was added with the fourth fas-1 domain of βig-h3 (βig-h3 D-IV) prepared in Example 1, at concentrations of 5 μM, 10 μM and 20 μM, respectively, and preincubated at 37° C. for 30 minutes. The preincubated cells were added to each well of the 96-well plate precoated with a recombinant βig-h3 His-1-b protein. Then, the cells were tested in the same manner as in Example 2. A control was treated with 2% BSA.

[3] = tested on: HUVECs; assay: Transwell migration of endothelial cells toward βig-h3 (Example 4-2)
Description: The present inventors tested whether the fas-1 domain has the activity to inhibit the migration of endothelial cells (Nam, J. O. et al., J. Biol. Chem., 278:25902-25909, 2003). Cell migration assay was performed in a transwell plate (8 μm pore size, Costar, Cambridge, Mass.). The undersurface of the membrane was coated with the recombinant βig-h3 His-1-b (10 μg/ml) protein prepared in Example 1, at 4° C., and then, blocked for 1 hour at room temperature with PBS buffer containing 2% BSA. Meanwhile, HUVECs were added with the fas-1 domain (βig-h3 D-IV) prepared in Example 1, and preincubated at 37° C. for 30 minutes. A control was added with 2% BSA. Then, the HUVECs preincubated with the fas-1 domain were suspended in medium at a density of 3×10^5 cells/ml, and 0.1 ml of the cell suspension was added to the upper compartment of the filter. The cells were allowed to migrate at 37° C. for 6-8 hours.
Migration was terminated by removing the cells from the upper compartment of the filter with a cotton swab. The filters were fixed with 8% glutaraldehyde and stained with crystal violet. The extent of cell migration was determined by light microscope, and within each well, cell counting was done in nine randomly selected fields HPF (Microscopic high power fields, x200).

[4] = collagen-coated plate, 30, 60, 90 minutes
[5] = 20 μM fas-1 domain vs 1,000 μM YH peptide

B1: fas-1 domain: recombinant protein containing the fourth fas-1 domain of human βig-h3 (SEQ ID NO: 64) (protein, listed as Homo sapiens)
chain: MGTVMDVLKGDNRFSMLVAAIQSAGLTETLNREGVYTVFAPTNEAFRALPPRERSRLLGDAKELANILKYHIGDEILVSGGIGALVRLKSLQGDKLEVSLKNNVVSVNKEPVAEPDIMATNGVVHVITNVL
- absolute amounts of FAK, Raf1, ERK and AKT enzymes in the cells vs control [1]: not significantly different
- phosphorylation of AKT [1, 4]: greatly reduced as compared to that of the control
- phosphorylation of ERK [1, 4]: no increase in phosphorylation until 90 minutes
- phosphorylation of FAK [1, 4]: reduced as compared to the control
- phosphorylation of Raf1 [1, 4]: greatly reduced as compared to that of the control
- inhibition of βig-h3-mediated adhesion of endothelial cells ([2]; 5 μM): inhibited
- inhibitory effect of endothelial cell adhesion compared with YH motif-containing peptide fragment of 18 amino acids [2, 5]: higher
- inhibition of βig-h3-mediated adhesion of endothelial cells ([2]; 5, 10 and 20 μM): inhibited in a dose-dependent manner
- inhibitory effect of endothelial cell migration compared with YH motif-containing peptide fragment of 18 amino acids [3, 5]: higher
- inhibition of migration of endothelial cells promoted by βig-h3 ([3]; transwell coated with βig-h3 His-1-b 10 μg/ml): inhibited by the fas-1 domain in a dose-dependent manner
